Patent publication US20240360226A1 (AstraZeneca / MedImmune, published 2024)

T1: HER4 (Homo sapiens (Human), UniProt Q15303 26-651)
T1 construct: also called EGFR HER family protein HER4
T1 sequence: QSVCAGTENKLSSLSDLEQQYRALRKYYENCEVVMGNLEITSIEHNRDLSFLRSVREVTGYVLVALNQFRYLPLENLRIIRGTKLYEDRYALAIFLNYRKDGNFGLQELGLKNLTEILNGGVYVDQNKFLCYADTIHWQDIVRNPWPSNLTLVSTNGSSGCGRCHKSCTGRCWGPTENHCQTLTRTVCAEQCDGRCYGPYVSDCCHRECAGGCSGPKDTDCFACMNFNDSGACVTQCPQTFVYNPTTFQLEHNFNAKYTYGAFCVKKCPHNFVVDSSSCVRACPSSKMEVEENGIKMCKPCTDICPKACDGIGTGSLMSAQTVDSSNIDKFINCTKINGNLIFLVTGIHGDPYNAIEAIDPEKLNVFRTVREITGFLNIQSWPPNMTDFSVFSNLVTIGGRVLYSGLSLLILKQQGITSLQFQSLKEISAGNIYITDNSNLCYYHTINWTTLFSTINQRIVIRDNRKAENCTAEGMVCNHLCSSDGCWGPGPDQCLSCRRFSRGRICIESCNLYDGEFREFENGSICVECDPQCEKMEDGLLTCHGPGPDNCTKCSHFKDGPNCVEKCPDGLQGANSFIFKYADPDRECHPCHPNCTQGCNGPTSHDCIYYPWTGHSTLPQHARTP

B1: B09-57 IgG (antibody, V domains shown)
VH: QVQLVQSGAEVKKPGASVKVSCKASGYTFTDYYIHWVRQATGQGLEWMGWMNPNSGNTGYAQKFQGRVTMTRDTSISTAYMELSSLRSEDTAVYYCARGQGYTHSWGQGTMVTVSS
VL: DIQMTQSPSTLSASVGDRVTITCRASEGIYHWLAWYQQKPGKAPKLLIYKASSLASGVPSRFSGSGSGTEFTLTISSLQPDDFATYYCQQYSNYPPTFGGGTKLEIK
notes: also called B09-GL; anti-c-Met antibody clone B09-GL
B2: RAA22/B09-57 DuetMab (bispecific antibody, human IgG1, kappa, lambda)
heavy 1: QVQLVQSGAEVKKPGSSVKVSCKASGGTFSDNDFSWVRQAPGQGLEWMGAIVAVFRTETYAQKFQDRVKITADISTRTTYMELSSLRSEDTAVYYCARRLMSAISGPGAPLLMWGQGTLVTVSSASTKGPSVFPLAPSSKSTSGGTAALGCLVKDYFPEPVTVSWNSGALTSGVHTFPAVLQSSGLYSLSSVVTVPSSSLGTQTYICNVNHKPSNTKVDKRVEPKSCDKTHTCPPCPAPELLGGPSCVFLFPPKPKDTLMISRTPEVTCVVVDVSHEDPEVKFNWYVDGVEVHNAKTKPREEQYNSTYRVVSVLTVLHQDWLNGKEYKCKVSNKALPAPIEKTISKAKGQPREPQVCTLPPSREEMTKNQVSLSCAVKGFYPSDIAVEWESNGQPENNYKTTPPVLDSDGSFFLVSKLTVDKSRWQQGNVFSCSVMHEALHNHYTQKSLSLSPGK
light 1: QSALTQPRSVSGSPGQSVTISCTGTSSDVGGYNYVSWYQQHPGKAPKLMIYDVSKRPSGVPDRFSGSKSGNTASLTISGLQAEDEADYYCSSYTSSDTLEIFGGGTKLTVLGQPKAAPSVTLFPPSSEELQANKATLVCLISDFYPGAVTVAWKADSSPVKAGVETTTPSKQSNNKYAASSYLSLTPEQWKSHRSYSCQVTHEGSTVEKTVAPTECS
heavy 2: QVQLVQSGAEVKKPGASVKVSCKASGYTFTDYYIHWVRQATGQGLEWMGWMNPNSGNTGYAQKFQGRVTMTRDTSISTAYMELSSLRSEDTAVYYCARGQGYTHSWGQGTMVTVSSASTKGPSVCPLAPSSKSTSGGTAALGCLVKDYFPEPVTVSWNSGALTSGVHTFPAVLQSSGLYSLSSVVTVPSSSLGTQTYICNVNHKPSNTKVDKRVEPKSVDKTHTCPPCPAPELLGGPSCVFLFPPKPKDTLMISRTPEVTCVVVDVSHEDPEVKFNWYVDGVEVHNAKTKPREEQYNSTYRVVSVLTVLHQDWLNGKEYKCKVSNKALPAPIEKTISKAKGQPREPQVYTLPPCREEMTKNQVSLWCLVKGFYPSDIAVEWESNGQPENNYKTTPPVLDSDGSFFLYSKLTVDKSRWQQGNVFSCSVMHEALHNHYTQKSLSLSPG
light 2: DIQMTQSPSTLSASVGDRVTITCRASEGIYHWLAWYQQKPGKAPKLLIYKASSLASGVPSRFSGSGSGTEFTLTISSLQPDDFATYYCQQYSNYPPTFGGGTKLEIKRTVAAPSVFIFPPCDEQLKSGTASVVCLLNNFYPREAKVQWKVDNALQSGNSQESVTEQDSKDSTYSLSSTLTLSKADYEKHKVYACEVTHQGLSSPVTKSFNRGEV
notes: Labelled with AlexaFluor-647 in the microscopy experiments; also called RAA22/B09-Maia; bispecific EGFR/cMET DuetMAb

Legend:
[1] = biological target: T1, HER4; assay: ELISA, antigen coated at 1 ug/mL, anti-human Fab-HRP detection, A450
[2] = biological target: T2, Mouse EGFR (recombinant, soluble monomeric) (mouse, UniProt Q01279 25-647); assay: as above
T2 construct: also called murine EGFR
Experimental: (§1) Specificity for EGFR and cMET species paralogs and closely related family members was determined by ELISA. Briefly, antigen solutions were prepared in PBS at 1 μg/mL and 50 microliters was coated onto half area ELISA assay plates. Plates were washed and blocked with 1% BSA in PBS containing 0.005% Tween-20 (PBS-T) for one hour at room temperature. […] Wells were incubated with 50 microliters of the indicated primary antibodies diluted in PBS-T in a 1:3 dilution series, starting at 10 μg/mL and ending at 0.002 ug/mL, except for the HER4 binding mAb control, MAB1131, for which the series started at 1 μg/mL. The wells were washed 4 times in PBS-T, then 50 μl of goat anti-human Fab HRP-labeled secondary antibody, diluted 1:5000 in PBS-T, was added to each well and incubated for one hour at room temperature. […] 50 microliters of TMB stop solution was added to all wells and the absorbance was read at 450 nm on a SpectraMax M5 microplate reader. Data were analyzed in the SoftMax Pro 5 software and plotted using GraphPad Prism 7 graphing software.
(§2) To determine the species cross reactivity, ELISA assays were carried out as described above.

[3] = biological target: Mouse cMET (recombinant) (mouse, UniProt P16056 25-931, limits assumed); assay: as above
Mouse cMET (recombinant), sequence (P16056 25-931 limits assumed): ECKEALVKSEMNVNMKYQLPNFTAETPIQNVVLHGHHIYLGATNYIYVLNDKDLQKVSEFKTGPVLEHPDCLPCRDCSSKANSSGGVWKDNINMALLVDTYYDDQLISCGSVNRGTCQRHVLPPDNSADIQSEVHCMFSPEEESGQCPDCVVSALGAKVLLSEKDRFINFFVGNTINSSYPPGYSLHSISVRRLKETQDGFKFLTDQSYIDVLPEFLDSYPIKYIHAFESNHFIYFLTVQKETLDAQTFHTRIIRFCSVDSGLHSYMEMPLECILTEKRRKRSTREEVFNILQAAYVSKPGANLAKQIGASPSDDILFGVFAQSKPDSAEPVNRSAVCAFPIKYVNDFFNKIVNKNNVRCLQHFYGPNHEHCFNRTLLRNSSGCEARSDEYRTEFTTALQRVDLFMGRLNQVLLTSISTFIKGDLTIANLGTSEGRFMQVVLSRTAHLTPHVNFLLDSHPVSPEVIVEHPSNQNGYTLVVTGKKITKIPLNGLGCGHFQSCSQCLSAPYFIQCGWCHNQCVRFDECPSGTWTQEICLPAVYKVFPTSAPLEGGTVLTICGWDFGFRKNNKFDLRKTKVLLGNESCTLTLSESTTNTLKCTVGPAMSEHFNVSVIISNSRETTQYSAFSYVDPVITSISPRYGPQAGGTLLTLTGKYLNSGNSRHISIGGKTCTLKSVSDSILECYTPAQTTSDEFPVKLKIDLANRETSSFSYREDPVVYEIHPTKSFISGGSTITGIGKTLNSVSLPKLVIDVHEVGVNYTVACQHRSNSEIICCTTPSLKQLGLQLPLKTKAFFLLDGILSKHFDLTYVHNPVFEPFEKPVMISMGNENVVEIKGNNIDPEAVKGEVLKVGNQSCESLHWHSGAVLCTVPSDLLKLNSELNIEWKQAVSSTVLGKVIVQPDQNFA
Experimental: as §1, §2

[4] = biological target: T3, Cynomolgus monkey EGFR (recombinant, soluble monomeric) (cynomolgus monkey, UniProt P55245 25-645 (rhesus entry)); assay: as above
T3 construct: also called cyno EGFR
Experimental: as §1, §2

[5] = biological target: T4, HER2 (Homo sapiens (Human), UniProt P04626 23-652); assay: as above
T4 construct: also called EGFR HER family protein HER2

[6] = biological target: T5, Human EGFR (recombinant, soluble monomeric) (human, UniProt P00533 25-645); assay: biolayer interferometry (Octet), antibody bound to cMET captured on NI-NTA sensors, then human EGFR
T5 construct: also called EGFR antigen; recombinant human EGFR

[7] = biological target: T6, HER3 (Homo sapiens (Human), UniProt P21860 20-643); assay: ELISA, antigen coated at 1 ug/mL, anti-human Fab-HRP detection, A450
T6 construct: also called EGFR HER family protein HER3

[8] = biological target: T7, Cynomolgus monkey cMET (recombinant, soluble monomeric) (cynomolgus monkey, UniProt A0M8R7 25-932 (Papio anubis entry)); assay: SPR (Biacore T200), antibody captured on anti-human IgG, soluble monomeric antigen as analyte, 25 C
T7 construct: also called cyno c-Met
T7 sequence (A0M8R7 25-932 S170N/I621T): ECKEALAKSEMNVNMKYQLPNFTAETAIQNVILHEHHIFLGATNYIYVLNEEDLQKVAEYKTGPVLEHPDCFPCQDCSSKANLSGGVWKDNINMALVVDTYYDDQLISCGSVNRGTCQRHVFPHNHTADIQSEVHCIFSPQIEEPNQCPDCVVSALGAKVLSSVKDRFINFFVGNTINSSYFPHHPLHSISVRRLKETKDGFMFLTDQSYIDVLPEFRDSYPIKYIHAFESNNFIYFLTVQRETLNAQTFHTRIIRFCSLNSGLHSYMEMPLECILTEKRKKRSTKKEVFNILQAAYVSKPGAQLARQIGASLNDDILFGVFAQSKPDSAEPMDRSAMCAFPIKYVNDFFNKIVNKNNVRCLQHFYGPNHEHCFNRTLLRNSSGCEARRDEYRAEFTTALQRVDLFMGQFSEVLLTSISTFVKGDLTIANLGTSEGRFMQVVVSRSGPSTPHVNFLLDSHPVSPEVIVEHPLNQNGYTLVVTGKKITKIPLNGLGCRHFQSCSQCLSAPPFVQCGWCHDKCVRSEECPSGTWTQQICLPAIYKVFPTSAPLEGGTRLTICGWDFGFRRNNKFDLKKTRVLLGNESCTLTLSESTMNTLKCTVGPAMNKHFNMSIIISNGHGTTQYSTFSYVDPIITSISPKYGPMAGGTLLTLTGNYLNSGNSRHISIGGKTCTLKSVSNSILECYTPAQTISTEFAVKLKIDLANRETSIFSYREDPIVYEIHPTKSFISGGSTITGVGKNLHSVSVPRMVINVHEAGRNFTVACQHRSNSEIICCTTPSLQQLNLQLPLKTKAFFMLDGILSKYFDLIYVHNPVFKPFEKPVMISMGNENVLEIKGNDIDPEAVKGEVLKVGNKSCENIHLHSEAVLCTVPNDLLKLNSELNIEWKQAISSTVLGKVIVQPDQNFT
Experimental: (§3) Mouse anti-human IgG was immobilized on a CM4 sensor chip with a final surface density of ˜2000 resonance units (RUs). A reference flow cell surface was also prepared on this sensor chip using identical immobilization protocol. Test and control article antibodies were prepared at 5-20 nM in instrument buffer (HBS-EP buffer; 0.01M HEPES, pH 7.4, 0.15M NaCl, 3 mM EDTA, and 0.005% P-20), along with 3-fold serial dilutions of purified EGFR (0.27-200 nM human, 0.4-900 nM cyno, and 4-1000 nM murine) or cMET proteins (0.27 to 66 nM human and 0.27-22 nM cyno) in instrument buffer. A sequential approach was utilized for kinetic measurements. Antibodies were first injected over the capture surface, at a flow rate of 10 μL/minute. Once the binding of the captured antibody stabilized, a single concentration of the analyte was injected over both capture and reference surfaces, at a flow rate of 75 μL/minute. The resulting binding response curves yielded the association phase data. Following the injection of analyte, the flow was then switched back to instrument buffer for 15 minutes to permit the collection of dissociation phase data, followed by a 1-minute pulse of 10 mM glycine, pH 1.5, to regenerate the antibody-captured surface on the chip. Binding responses against test and control article antibodies were recorded from duplicate injections of each concentration of analyte. In addition, several buffer injections were interspersed throughout the injection series. Select buffer injections were used along with the reference cell responses to correct the raw data sets for injection artifacts and/or nonspecific binding interactions, commonly referred to as “double referencing”. Corrected binding data were globally fit to a 1:1 binding model (Biacore T200 Evaluation software 2.0, GE Healthcare, Pittsburgh, PA).
(§4) Kinetic measurements to soluble monomeric forms of EGFR and cMET were performed using a BIACore instrument.

[9] = biological target: T8, Human cMET (recombinant, soluble monomeric) (human, UniProt P08581 25-932); assay: as above
T8 construct: also called His-tagged cMET antigen
T8 sequence (P08581 25-932): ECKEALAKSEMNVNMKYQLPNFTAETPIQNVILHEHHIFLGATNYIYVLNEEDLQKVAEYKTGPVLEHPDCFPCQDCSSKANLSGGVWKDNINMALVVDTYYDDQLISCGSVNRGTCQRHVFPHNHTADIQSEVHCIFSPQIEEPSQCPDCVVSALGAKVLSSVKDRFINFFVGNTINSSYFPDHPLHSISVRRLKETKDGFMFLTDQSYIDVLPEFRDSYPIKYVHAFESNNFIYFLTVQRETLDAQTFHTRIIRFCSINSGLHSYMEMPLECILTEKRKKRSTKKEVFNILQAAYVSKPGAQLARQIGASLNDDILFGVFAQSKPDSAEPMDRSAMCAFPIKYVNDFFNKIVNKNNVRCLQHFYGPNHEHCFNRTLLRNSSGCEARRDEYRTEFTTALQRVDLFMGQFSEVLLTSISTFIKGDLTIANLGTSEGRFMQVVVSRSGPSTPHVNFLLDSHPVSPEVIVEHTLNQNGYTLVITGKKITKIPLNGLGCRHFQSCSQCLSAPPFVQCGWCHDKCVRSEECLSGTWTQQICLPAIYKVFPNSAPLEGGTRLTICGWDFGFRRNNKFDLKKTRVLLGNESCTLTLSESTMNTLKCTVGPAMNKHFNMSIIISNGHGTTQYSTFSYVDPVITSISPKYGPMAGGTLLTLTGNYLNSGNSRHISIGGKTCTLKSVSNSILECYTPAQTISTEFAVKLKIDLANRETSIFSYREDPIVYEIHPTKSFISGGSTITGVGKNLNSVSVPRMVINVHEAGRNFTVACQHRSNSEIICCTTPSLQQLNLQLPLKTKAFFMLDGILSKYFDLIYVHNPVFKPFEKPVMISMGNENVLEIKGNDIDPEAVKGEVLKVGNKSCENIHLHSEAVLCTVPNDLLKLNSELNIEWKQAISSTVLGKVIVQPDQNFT
Experimental: as §3, §4

[10] = biological target: EGFR and c-MET co-expressed on HCC827 cells; assay: confocal fluorescence microscopy, AF647-labelled antibody pre-bound to cells, T=0
[11] = biological target: EGFR and c-MET co-expressed on HCC827 cells; assay: confocal fluorescence microscopy, AF647-labelled antibody pre-bound to HCC827 cells, T=0
[12] = biological target: EGFR and c-MET co-expressed on NCI-H1975 cells; assay: confocal fluorescence microscopy, AF647-labelled antibody pre-bound to H1975 cells, T=0
[13] = biological target: T2, Mouse EGFR (recombinant, soluble …); assay: SPR (Biacore T200), antibody captured on anti-human IgG, soluble monomeric antigen as analyte, 25 C
Experimental: as §3, §4

[14] = biological target: T5, Human EGFR (recombinant, soluble …); assay: as above
Experimental: as §3, §4

[15] = biological target: T3, Cynomolgus monkey EGFR (recombinant, …); assay: as above
Experimental: as §3, §4

Row | Binder | binding result [1] | binding result [3] | binding result [5] | binding result [7] | Kd [8] | koff [8] | kon [8] | Kd [9] | koff [9] | kon [9] | also measured
1 | B1 | no binding (tested: 10 ug/ml) | no binding (tested: 10 ug/ml) | no binding (tested: 10 ug/ml) | no binding (tested: 10 ug/ml) | 1.9 nM | 0.00194 s⁻¹ | 1.04e+06 M⁻¹ s⁻¹ | 1.6 nM | 0.000882 s⁻¹ | 563000 M⁻¹ s⁻¹ | binding result [2]: no binding (tested: 10 ug/ml); binding result [4]: no binding (tested: 10 ug/ml); binding result [6]: no binding (tested: 500 nM EGFR)
2 | B2 | no binding (tested: 10 ug/ml) | no binding (tested: 10 ug/ml) | no binding (tested: 10 ug/ml) | no binding (tested: 10 ug/ml) | 2.2 nM | 0.00212 s⁻¹ | 974000 M⁻¹ s⁻¹ | 2.2 nM | 0.000986 s⁻¹ | 443000 M⁻¹ s⁻¹ | fold higher binding than on H1975 cells [10]: 8.9 fold; MFI [11]: 3.1e+07 MFI; MFI [12]: 3.5e+06 MFI; Kd [13]: 575 nM; koff [13]: 0.0206 s⁻¹; kon [13]: 35400 M⁻¹ s⁻¹; Kd [14]: 45 nM; koff [14]: 0.00201 s⁻¹; kon [14]: 44700 M⁻¹ s⁻¹; Kd [15]: 197 nM; koff [15]: 0.00548 s⁻¹; kon [15]: 27800 M⁻¹ s⁻¹
